Data: publication PMC6010298

Legend:
[1] = target: His6-tagged ComE T128A (non-phosphorylatable) T128A; assay: Sandwich fluorescence-linked immunosorbent assay (FLISA); settings: no added salt stated (50 mM Bis-Tris-Propane-HCl, 1 mM MgCl2), 1 mM MgCl2, pH 7.8 or the same buffer at pH 6.0
[2] = target: His6-tagged ComE (response regulator ComE, wild type); assay: as above; settings: no added salt stated (50 mM Bis-Tris-Propane-HCl, 1 mM MgCl2), 1 mM MgCl2, pH 7.8 or the same buffer at pH 6.0
[3] = target: His6-tagged ComE T128E (phosphomimetic) T128E; assay: as above; settings: no added salt stated (50 mM Bis-Tris-Propane-HCl, 1 mM MgCl2), 1 mM MgCl2, pH 7.8 or the same buffer at pH 6.0
[4] = system: ComE D58E (Hisx6) (Streptococcus pneumoniae R801); assay: EMSA
[5] = system: ComE wt (Hisx6) (Streptococcus pneumoniae R801); assay: EMSA
[6] = system: ComE T128A (Hisx6) (Streptococcus pneumoniae R801); assay: EMSA
[7] = system: ComE T128E (Hisx6) (Streptococcus pneumoniae R801); assay: EMSA
[8] = pH 6.0, 37°C (binding step, 1 h)
[9] = pH 7.8, 37°C (binding step, 1 h)

| Substance | K1/2 [1, 8] | K1/2 [1, 9] | K1/2 [2, 8] | K1/2 [2, 9] | K1/2 [3, 8] | K1/2 [3, 9] | Kd [4] | Kd [5] | Kd [6] | Kd [7] |
| --- | --- | --- | --- | --- | --- | --- | --- | --- | --- | --- |
| GST-StkP K42M (kinase-inactive) K42M | 100 ng | 80 ng | 55 ng | 140 ng | – | – | – | – | – | – |
| GST-StkP (serine/threonine protein kinase StkP, wild type) | 100 ng | 110 ng | 94 ng | 330 ng | 3200 ng | 900 ng | – | – | – | – |
| pcomC (comCDE promoter) | – | – | – | – | – | – | 21 nM | 371 nM | 375 nM | 74 nM |
